These results are taken from US20240182408A1, “DRIED PRENCSO COMPOSITION” (HOUSE FOODS GROUP INC., priority 2021, published 2024).

This data set in a line: specific activity of LFS. The format is biochemical. The following applies: rLFS used in Examples.

B1: rLFS: recombinant lachrymatory factor synthase (E2-3) produced in E. coli, GST tag removed (protein, UniProt P59082 13-169, looked up)
Lachrymatory-factor synthase: DSANGARKWSGKVHALLPNTKPEQAWTLLKDFINLHKVMPSLSVCELVEGEANVVGCVRYVKGIMHPIEEEFWAKEKLVALDNKNMSYSYIFTECFTGYEDYTATMQIVEGPEHKGSRFDWSFQCKYIEGMTESAFTEILQHWATEIGQKIEEVCSA
Turning to B1, the specific activity was 6.0×10^6 area/μg.
